Source: patent US20170298096A1 (CANIMGUIDE THERAPEUTICS, published 2017)
No end group written: not given here.

Molecular target: T1, His-tagged P3028 (human, also: His-tag, terminus and sequence not given here)
T1 construct: in solution at 0.5 ug/mL over the peptide cards; found with anti-His-tag antibody and rabbit anti-mouse peroxidase (rampo); also called PGE73; not shown: His-tag
T1 peptide: VFDEFKPLVEEPQNLIK
Assay: PEPSCAN chip ELISA, His-P3028 in solution;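 also: score is the raw OD at 405 nm from peroxidase colour with ABTS, imaged by CCD camera before and after staining, with wells showing air bubbles set to zero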

Binder | RAMPO Score
RKLDTFFVKLSLFTER [SEQ ID NO 3] | 523 rampo score
GKLDTFFVKLSLFTER [SEQ ID NO 271] | 367 rampo score
KKLDTFFVKLHLFTER [SEQ ID NO 18] | 535 rampo score
KKLDTVFVKLSLFTER [SEQ ID NO 8] | 547 rampo score
KKLDTFFVKLSMFTER [SEQ ID NO 21] | 499 rampo score
KKLDTFLVKLSLFTER [SEQ ID NO 13] | 517 rampo score
KKLDTFFVKLSLMTER [SEQ ID NO 22] | 1190 rampo score
KKLDTFFVKLSLFRER [SEQ ID NO 33] | 264 rampo score
KKKDTFFVKLSLFTER [SEQ ID NO 290] | 386 rampo score
NKLDTFFVKLSLFTER [SEQ ID NO 276] | 445 rampo score
KKTDTFFVKLSLFTER [SEQ ID NO 296] | 451 rampo score
KKLDTFFVKLSLRTER [SEQ ID NO 30] | 502 rampo score
TKLDTFFVKLSLFTER [SEQ ID NO 280] | 493 rampo score
KKLDTFTVKLSLFTER [SEQ ID NO 12] | 517 rampo score
KKLDTFSVKLSLFTER [SEQ ID NO 10] | 700 rampo score
KKLDTFFVKLSLFPER [SEQ ID NO 32] | 551 rampo score
KKGDTFFVKLSLFTER [SEQ ID NO 4] | 563 rampo score
KKNDTFFVKLSLFTER [SEQ ID NO 292] | 374 rampo score
KKLDTFFVKLSLHTER [SEQ ID NO 24] | 1050 rampo score
KKHDTFFVKLSLFTER [SEQ ID NO 288] | 477 rampo score
MKLDTFFVKLSLFTER [SEQ ID NO 275] | 457 rampo score
IKLDTFFVKLSLFTER [SEQ ID NO 273] | 483 rampo score
GKLDTFFVKLSLFTER [SEQ ID NO 93] | 367 rampo score
EKLDTFFVKLSLFTER [SEQ ID NO 270] | 396 rampo score

Binder | RAMPO Score
KKLDTFFVKLSLNTER [SEQ ID NO 25] | 862 rampo score
KKLDTFFVKVSLFTER [SEQ ID NO 14] | 658 rampo score
KKRDTFFVKLSLFTER [SEQ ID NO 294] | 370 rampo score
KKLDTFFVKLGLFTER [SEQ ID NO 99] | 288 rampo score
KKLDTFVVKLSLFTER [SEQ ID NO 11] | 527 rampo score
KKVDTFFVKLSLFTER [SEQ ID NO 297] | 377 rampo score
DKLDTFFVKLSLFTER [SEQ ID NO 269] | 373 rampo score
KKLDTFGVKLSLFTER [SEQ ID NO 96] | 347 rampo score
KKLDTFFVKLSLSTER [SEQ ID NO 27] | 635 rampo score
KKDDTFFVKLSLFTER [SEQ ID NO 284] | 492 rampo score
KKLDTFFVKLSLQTER [SEQ ID NO 23] | 1140 rampo score
KKLATFFVKLSLFTER [SEQ ID NO 298] | 494 rampo score
KKLDTFFVKLQLFTER [SEQ ID NO 15] | 768 rampo score
KKLDTFFVKLSQFTER [SEQ ID NO 19] | 651 rampo score
KKGDTFFVKLSLFTER [SEQ ID NO 94] | 563 rampo score
KKLDQFFVKLSLFTER [SEQ ID NO 6] | 535 rampo score
KKLETFFVKLSLFTER [SEQ ID NO 299] | 417 rampo score
KKLDTFFVKLSLFNER [SEQ ID NO 31] | 599 rampo score
AKLDTFFVKLSLFTER [SEQ ID NO 268] | 466 rampo score
KKGDTFFVKLSLFTER [SEQ ID NO 287] | 563 rampo score
KKLDTFFVKLSLPTER [SEQ ID NO 26] | 696 rampo score
KKLDTFFVKLTLFTER [SEQ ID NO 17] | 520 rampo score
KKCDTFFVKLSLFTER [SEQ ID NO 283] | 432 rampo score
LKLDTFFVKLSLFTER [SEQ ID NO 274] | 449 rampo score

Binder | RAMPO Score
KKMDTFFVKLSLFTER [SEQ ID NO 291] | 460 rampo score
KKIDTFFVKLSLFTER [SEQ ID NO 289] | 454 rampo score
KKLDTFFVKLSVFTER [SEQ ID NO 20] | 545 rampo score
QKLDTFFVKLSLFTER [SEQ ID NO 278] | 455 rampo score
KKLDGFFVKLSLFTER [SEQ ID NO 95] | 386 rampo score
KKLDTFMVKLSLFTER [SEQ ID NO 9] | 712 rampo score
HKLDTFFVKLSLFTER [SEQ ID NO 272] | 428 rampo score
KKEDTFFVKLSLFTER [SEQ ID NO 5] | 528 rampo score
KKLDTFFVKLSLGTER [SEQ ID NO 100] | 531 rampo score
KKLITFFVKLSLFTER [SEQ ID NO 300] | 430 rampo score
KKLDTFFVKLSLGTER [SEQ ID NO 28] | 531 rampo score
KKEDTFFVKLSLFTER [SEQ ID NO 285] | 528 rampo score
KKSDTFFVKLSLFTER [SEQ ID NO 295] | 393 rampo score
KKLDTAFVKLSLFTER [SEQ ID NO 7] | 575 rampo score
KKFDTFFVKLSLFTER [SEQ ID NO 286] | 393 rampo score
VKLDTFFVKLSLFTER [SEQ ID NO 281] | 442 rampo score
PKLDTFFVKLSLFTER [SEQ ID NO 277] | 387 rampo score
KKADTFFVKLSLFTER [SEQ ID NO 282] | 427 rampo score
RKLDTFFVKLSLFTER [SEQ ID NO 279] | 523 rampo score
KKLDTFFVKLMLFTER [SEQ ID NO 16] | 744 rampo score
KKLDTFFKKLSLFTER (also called P27; SCF 27) [SEQ ID NO 264] | 253 rampo score
KKLDTFFVKLSLATER [SEQ ID NO 29] | 525 rampo score
KKQDTFFVKLSLFTER [SEQ ID NO 293] | 473 rampo score
